# Data: patent US20040197795A1 (published 2004)
# T1: RNase I, an RNase from E. coli (Promega Cat. #M4261) (E. coli, UniProt P21338 24-268)
# T1 sequence (looked up): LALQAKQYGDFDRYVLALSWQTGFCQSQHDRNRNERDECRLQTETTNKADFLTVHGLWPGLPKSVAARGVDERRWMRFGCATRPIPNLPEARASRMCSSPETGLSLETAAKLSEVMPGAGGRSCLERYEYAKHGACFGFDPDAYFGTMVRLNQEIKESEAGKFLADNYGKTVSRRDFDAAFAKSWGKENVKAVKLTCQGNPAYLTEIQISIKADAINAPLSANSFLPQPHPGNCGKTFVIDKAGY
# B1: "RNasin Plus"-brand RNase inhibitor (recombinant rat-derived RNase inhibitor protein, Promega Pt # N261) (other, UniProt P29315 1-456, looked up)
# chain: MSLDIQCEQLSDARWTELLPLIQQYQVVRLDDCGLTEVRCKDIRSAIQANPALTELSLRTNELGDAGVGLVLQGLQNPTCKIQKLSLQNCSLTEAGCGVLPDVLRSLSTLRELHLNDNPLGDEGLKLLCEGLRDPQCRLEKLQLEYCNLTATSCEPLASVLRVKPDFKELVLSNNDFHEAGIHTLCQGLKDSACQLESLKLENCGITSANCKDLCDVVASKASLQELDLGSNKLGNTGIAALCSGLLLPSCRLRTLWLWDCDVTAEGCKDLCRVLRAKQSLKELSLAGNELKDEGAQLLCESLLEPGCQLESLWVKTCSLTAASCPHFCSVLTKNRSLFELQMSSNPLGDSGVVELCKALGYPDTVLRVLWLGDCDVTDSGCSSLATVLLANRSLRELDLSNNCMGDNGVLQLLESLKQPSCILQQLVLYDIYWTDEVEDQLRALEEERPSLRIIS
# Target: T1, RNase I, an RNase from E. coli (Promega …)
# Assay: cell-based or functional assay
binder,measurement,value
B1,% inhibition of RNase; RNasin Plus-brand inhibitor without DTT increased 10-fold (10×); 58° C.,100%
